The target of the experiment is ALG-2 delta3-23 (Homo sapiens, UniProt O75340, Ca2+). Kind of experiment: ITC. (In general: ITC needs no label: the signal is the heat of the interaction.)
Chain of ALG-2 delta3-23 (O75340 3-23, stated change not applied): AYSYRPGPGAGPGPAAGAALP

B1: SOUL (protein)
chain: AEPLQPDPGAAEDAAAQAVETPGWKAPEDAGPQPGSYEIRHYGPAKWVSTSVESMDWDSAIQTGFTKLNSYIQGKNEKEMKIKMTAPVTSYVEPGSGPFSESTITISLYIPSEQQFDPPRPLESDVFIEDRAEMTVFVRSFDGFSSAQKNQEQLLTLASILREDGKVFDEKVYYTAGYNSPVKLLNRNNEVWLIQKNEPTKENE
B1: the affinity, expressed as Kd, was 32.4 nM.

The Kd is the concentration at which binding is half-saturated. Read a low Kd as higher affinity.

The values above are taken from paper PMC6321638 (2018).
